Values quoted from earlier work, collected in patent US20040120897A1, “Method for administering insulinotropic peptides” (priority 1998, published 2004).

Details: calculated, background statement

| Substance | absorption value after delivery through the lungs |
| --- | --- |
| glycosylated α1-antitrypsin: protein cited in the background for its pulmonary absorption value | 48 h |
| parathyroid hormone (1-34): peptide hormone cited in the background for its pulmonary absorption value | fifteen |
